Experimental data from PMC8523169, “Competitive binding of MatP and topoisomerase IV to the MukB hinge domain”.

T1: MatP (MatPΔ18C) (Escherichia coli, UniProt P0A8N0 1-132)
T1 sequence: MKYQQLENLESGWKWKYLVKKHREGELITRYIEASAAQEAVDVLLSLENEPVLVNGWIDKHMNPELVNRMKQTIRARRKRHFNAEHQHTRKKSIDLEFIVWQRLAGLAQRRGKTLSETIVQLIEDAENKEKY

T2: MatP4E (Escherichia coli, UniProt P0A8N0 1-132, K71E;Q72E;R75E;R77E)
T2 sequence: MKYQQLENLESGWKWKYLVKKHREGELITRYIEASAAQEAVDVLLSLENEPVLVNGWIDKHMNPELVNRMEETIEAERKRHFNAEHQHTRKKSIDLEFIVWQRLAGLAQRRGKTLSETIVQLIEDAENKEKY


What was measured:
MatP (MatPΔ18C) = target: T1, MatP (MatPΔ18C); assay: native MS; Native PAGE: 50 mM HEPES pH 7.5, 100 mM NaCl, 1 mM MgCl2, 1 mM DTT, 10% glycerol, on ice 30 min; FCS: 20 mM Tris-HCl pH 7.5, 50 mM NaCl, 0.3 mg/mL BSA, 2 mM DTT, 0.05% Tween-20, 22 °C; nMS buffer not given in the material; details: protein: recombinant; tags: C-terminal 6xHis; chain copies: 2; blunt
MatP4E = target: T2, MatP4E; assay: EMSA (native PAGE); 1 mM Mg2+; Native PAGE: 50 mM HEPES pH 7.5, 100 mM NaCl, 1 mM MgCl2, 1 mM DTT, 10% glycerol, on ice 30 min; FCS: 20 mM Tris-HCl pH 7.5, 50 mM NaCl, 0.3 mg/mL BSA, 2 mM DTT, 0.05% Tween-20, 22 °C; nMS buffer not given in the material; details: protein: recombinant; tags: C-terminal 6xHis; chain copies: 2; blunt

Row | Binder | binding result (MatP (MatPΔ18C)) | binding result (MatP4E)
1 | 50 bp matS DNA (dsDNA) DNA 1: CAGAGTTAATCAGAACGGTGACAATGTCACAAAGAAAAAGAACCTGTGCG DNA 2: CGCACAGGTTCTTTTTCTTTGTGACATTGTCACCGTTCTGATTAACTCTG | binds | no binding
2 | 50 bp nonspecific DNA (dsDNA) DNA 1: CAGAGTTAATCACAACGGTTCTCGATCATCAAAGAAAAACAAGCTGTGCG DNA 2: CGCACAGCTTGTTTTTCTTTGATGATCGAGAACCGTTGTGATTAACTCTG | – | no binding
